Measurements reported in US20130266605A1, “PEPTIDE INHIBITORS OF CD40L SIGNALING AND USES THEREFOR” (PHYLOGICA LIMITED, priority 2010, published 2013).
Like-named read-outs stand apart in the source and are kept apart here. Positions of bridges follow the written chain, without caps; N, C: chain ends. Residues, ends and D or L forms follow the SMILES beside them. Chains are numbered I, II in the order given. No end group written: not given here. PEG = not defined here

Experiments:
[1] = molecular target: T1, CD40L (Homo sapiens, UniProt P29965); test: Octet Red label-free association/dissociation analysis; assay type: binding
T1 sequence (P29965 113-261 limits assumed): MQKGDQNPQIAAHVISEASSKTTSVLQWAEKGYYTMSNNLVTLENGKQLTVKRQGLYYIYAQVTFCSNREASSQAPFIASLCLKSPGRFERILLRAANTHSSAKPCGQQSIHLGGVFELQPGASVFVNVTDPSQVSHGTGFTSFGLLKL
Method: Label-free analyses of the associations and dissociations of base peptides and serine derivatives of base peptides with the CD40L target protein were performed using the Octet Red system (ForteBio, Inc., USA) according to the manufacturer's instructions. These analyses provide kinetic constants of CD40L binding activity, especially the association rate constant (Ka) and dissociation rate constant ([…]) of binding, i.e., measures of the “on” and “off” rates of the peptides relative to soluble CD40L.

[2] = molecular target: T2, CD40L-CD40 interaction (Homo sapiens, UniProt P29965); test: Chemiluminescent proximity assay (Alphascreen); assay type: binding
T2 sequence (P29965 113-261 limits assumed): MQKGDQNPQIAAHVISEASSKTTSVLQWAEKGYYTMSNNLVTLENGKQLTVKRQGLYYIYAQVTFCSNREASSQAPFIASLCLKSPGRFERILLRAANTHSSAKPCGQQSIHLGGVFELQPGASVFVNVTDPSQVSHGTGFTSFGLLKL
Method: In one example, the Alphascreen assay (PerkinElmer) was employed according to the manufacturer's instructions.
Homodimers and heterodimers were also assayed by chemiluminescent proximity assay for their ability to inhibit CD40L-CD40 interaction.

[3] = molecular target: T3, CD40 ligand (UniProt P29965 108-261, limits assumed); test: Octet Red label-free (BLI)
T3 construct: Used immobilised, soluble, or biotinylated on streptavidin beads; also called CD154; soluble CD40L
T3 sequence (looked up): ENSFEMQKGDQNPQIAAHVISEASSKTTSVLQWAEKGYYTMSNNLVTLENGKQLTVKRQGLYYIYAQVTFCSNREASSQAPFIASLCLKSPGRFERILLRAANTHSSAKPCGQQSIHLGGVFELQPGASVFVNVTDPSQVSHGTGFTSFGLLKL

[4] = molecular target: T3, CD40 ligand; test: Alphascreen, unmodified peptide, inhibition of CD40L/CD40-Fc
[5] = molecular target: T3, CD40 ligand; test: phage-displayed peptide on bound CD40L, soluble CD40L as competitor
[6] = molecular target: T3, CD40 ligand; test: cell-based or functional assay
[7] = molecular target: T3, CD40 ligand; test: Alphascreen, PEGylated peptide, inhibition of CD40L/CD40-Fc
[8] = molecular target: T3, CD40 ligand; test: cell-based or functional assay; remark: listed apart in the source
[9] = molecular target: T3, CD40 ligand; test: Alphascreen proximity assay, inhibition of CD40L-CD40
[10] = base peptides, equilibrium dissociation constant, read-out: KD
[11] = Cys-Ser derivative peptides, read-out: KD value

CC[C@H](C)[C@H](NC(=O)[C@H](CC(N)=O)NC(=O)[C@H](Cc1ccccc1)NC(=O)[C@@H]1CCCN1C(=O)[C@@H](NC(=O)[C@H](CC(N)=O)NC(=O)[C@@H](NC(=O)CNC(=O)[C@H](Cc1ccccc1)NC(=O)[C@H](CC(C)C)NC(=O)[C@@H](NC(=O)[C@H](Cc1ccccc1)NC(=O)[C@H](CO)NC(=O)[C@@H](N)Cc1c[nH]cn1)C(C)C)C(C)C)C(C)C)C(=O)N[C@H](C(=O)N[C@@H](CC(=O)O)C(=O)N[C@@H](Cc1ccccc1)C(=O)N[C@@H](CCC(N)=O)C(=O)N[C@@H](CCSC)C(=O)N[C@@H](CCCNC(=N)N)C(=O)N[C@H](C(=O)N[C@@H](CCCCN)C(=O)N[C@@H](CS)C(=O)O)C(C)C)[C@@H](C)CC [CD40L M1_42] (H-HSFVLFGVNVPFNIIDFQMRVKC-OH; N-terminus and C-terminus assumed)
Kd [1, 10]: 30 nM

PFTWRPTIFWIIQLIVYMRHFGGGGSRSELLRENICRYVSLFDHPLQRNTPLDELRFVIFDTETSGFDLVKDRILSIR [CD40L D1_0014]
Kd [1]: 48 nM
higher affinity for CD40L than the base monomeric peptide ([1]; heterodimer versus N-terminal monomer, from Table 2 data): 6 fold

CC[C@H](C)[C@H](NC(=O)[C@H](CC(C)C)NC(=O)[C@H](Cc1c[nH]c2ccccc12)NC(=O)[C@H](CCSC)NC(=O)[C@H](CCC(=O)O)NC(=O)CNC(=O)[C@H](CCC(=O)O)NC(=O)[C@H](CC(C)C)NC(=O)[C@H](CO)NC(=O)[C@H](CCC(=O)O)NC(=O)[C@@H](NC(=O)[C@@H](N)CCCNC(=N)N)[C@@H](C)CC)C(=O)N[C@@H](CC(N)=O)C(=O)N1CCC[C@H]1C(=O)N[C@@H](Cc1ccccc1)C(=O)N[C@@H](CC(N)=O)C(=O)NCC(=O)N[C@@H](CCC(=O)O)C(=O)N[C@H](C(=O)N[C@@H](CC(C)C)C(=O)N[C@@H](CC(=O)O)C(=O)N[C@@H](CCC(=O)O)C(=O)N[C@@H](Cc1c[nH]cn1)C(=O)N[C@H](C(=O)N[C@@H](CC(C)C)C(=O)N[C@@H](CCC(=O)O)C(=O)N[C@H](C(=O)N[C@@H](Cc1c[nH]c2ccccc12)C(=O)N[C@@H](CC(C)C)C(=O)N[C@@H](CCCCN)C(=O)O)C(C)C)[C@@H](C)O)[C@@H](C)O [CD40L M8_748] (H-RIESLEGEMWLINPFNGETLDEHTLEVWLK-OH)
Kd [1]: 5 nM
EC50 [2]: 184 nM

CC[C@H](C)[C@H](NC(=O)[C@H](CC(N)=O)NC(=O)[C@H](Cc1ccccc1)NC(=O)[C@@H]1CCCN1C(=O)[C@@H](NC(=O)[C@H](CC(N)=O)NC(=O)[C@@H](NC(=O)CNC(=O)[C@H](Cc1ccccc1)NC(=O)[C@H](CC(C)C)NC(=O)[C@@H](NC(=O)[C@H](Cc1ccccc1)NC(=O)[C@H](CO)NC(=O)[C@@H](N)Cc1c[nH]cn1)C(C)C)C(C)C)C(C)C)C(=O)N[C@H](C(=O)N[C@@H](CC(=O)O)C(=O)N[C@@H](Cc1ccccc1)C(=O)N[C@@H](CCC(N)=O)C(=O)N[C@@H](CCSC)C(=O)N[C@@H](CCCNC(=N)N)C(=O)N[C@H](C(=O)N[C@@H](CCCCN)C(=O)N[C@@H](CO)C(=O)O)C(C)C)[C@@H](C)CC [CD40L M1_42s] (H-HSFVLFGVNVPFNIIDFQMRVKS-OH)
Kd [1, 11]: 100 nM

LDLFGDFNGLPEGADRTEFYQHEGHWQNRMILGDSLQVMASLAEREGLRGKVQCIYFDPPYGIKFN [CD40L M9_763]
Kd [1, 10]: 27 nM

CC(C)C[C@H](NC(=O)[C@H](Cc1ccc(O)cc1)NC(=O)[C@H](CC(=O)O)NC(=O)[C@H](CCCNC(=N)N)NC(=O)[C@H](CCCNC(=N)N)NC(=O)[C@H](Cc1ccccc1)NC(=O)[C@H](CO)NC(=O)[C@H](CO)NC(=O)[C@H](Cc1ccc(O)cc1)NC(=O)[C@H](Cc1ccccc1)NC(=O)[C@H](CCCNC(=N)N)NC(=O)[C@H](Cc1ccccc1)NC(=O)[C@H](CC(C)C)NC(=O)[C@H](Cc1ccccc1)NC(=O)[C@H](Cc1ccccc1)NC(=O)[C@H](CC(C)C)NC(=O)[C@H](CC(N)=O)NC(=O)[C@H](Cc1ccc(O)cc1)NC(=O)[C@H](CCCNC(=N)N)NC(=O)[C@@H]1CCCN1C(=O)[C@@H]1CCCN1)C(=O)N[C@@H](Cc1ccc(O)cc1)C(=O)N[C@@H](Cc1ccccc1)C(=O)O [CD40L M1_9s] (H-PPRYNLFFLFRFYSSFRRDYLYF-OH)
Kd [1, 11]: 300 nM

CC[C@H](C)[C@H](NC(=O)[C@H](C)NC(=O)[C@@H](NC(=O)[C@H](CCSC)NC(=O)[C@H](CCC(=O)O)NC(=O)[C@H](CO)NC(=O)[C@@H](N)CC(C)C)[C@@H](C)CC)C(=O)N[C@@H](Cc1ccc(O)cc1)C(=O)N[C@H](C(=O)N[C@@H](Cc1ccccc1)C(=O)N[C@@H](CC(C)C)C(=O)N[C@@H](Cc1c[nH]c2ccccc12)C(=O)N[C@@H](CCCCN)C(=O)N[C@@H](CCCCN)C(=O)N[C@H](C(=O)N[C@@H](Cc1ccccc1)C(=O)N[C@@H](CC(C)C)C(=O)O)C(C)C)C(C)C [CD40L M7_217s] (H-LSEMIAIYVFLWKKVFL-OH; N-terminus and C-terminus assumed)
Kd [1, 11]: 100 nM

PFTWRPTIFWIIQLIVYMRHF (Base peptide; also called CD40L M1-206) [CD40L M7_206]
Kd [3]: 280 nM
EC50 [4]: 190 nM

PRWVRNRFYCLFVPSGVQRGGIHLWFSNWVR (Base peptide) [CD40L M1_50]
IC50 [5]: 45.8 nM

B1: LAEHAVWSLKcFPDWEWYNINIFGTDDPNHFWVEcDGHGKILFPGYPEGYYENHFLHSFELED (peptide)
peptide: LAEHAVWSLKCFPDWEWYNINIFGTDDPNHFWVECDGHGKILFPGYPEGYYENHFLHSFELED
modifications: not fully specified
Kd [1, 10]: 8 nM
EC50 ([2]; monomeric non-PEGylated (unmodified) base peptide; 50% reduction in control emission at 520-620 nm; read-out: EC50nmodified) CD40L/CD40-Fc/BAF617): 197 nM

LCEMIAIYVFLWKKVFL [CD40L M7_217]
EC50 unmodified peptide, inhibition of CD40L-induced CD86 expression on primary B-cells [6]: 2500 nM

{PEG}-PRWVRNRFYSLFVPSGVQRGGIHLWFSNWVR (reading uncertain, also called PEGylated M1_50S) [PEGylated CD40L M1_50s]
EC50 PEGylated peptide, inhibition of CD40L-induced CD86 expression on primary B-cells [6]: 30 nM
EC50 [7]: 1500 nM

B2: CD40L M9_789 (peptide)
peptide: LLAEQAGTLKSELEAMPLGEYEHAARYVSEVECNWKTFAGNYSECDHCHANHQDWITDIELEESELEVNDYHWILHYTHDEDVEDEMRIHDEHEAKFYYFWPNFT
notes: Base peptide
Kd [3]: 4 nM
EC50 [4]: 331 nM

{PEG}-PPRYNLFFLFRFYSSFRRDYLYF (reading uncertain, also called PEGylated M1_9S) [PEGylated CD40L M1_9s]
EC50 PEGylated peptide, inhibition of CD40L-induced CD86 expression on primary B-cells [6]: 180 nM
EC50 [7]: 48 nM

{PEG}-HSFVLFGVNVPFNIIDFQMRVKS (reading uncertain, also called PEGylated M1_42S) [PEGylated CD40L M1_42s]
EC50 PEGylated peptide, inhibition of CD40L-induced CD86 expression on primary B-cells [6]: 5000 nM
EC50 [7]: 112 nM

{PEG}-HPFSIKNVFSIWNFFSVY (reading uncertain, also called PEGylated M1_6S) [PEGylated CD40L M1_6s]
EC50 PEGylated peptide, inhibition of CD40L-induced CD86 expression on primary B-cells [6]: 1.5 nM
EC50 [7]: 48 nM

{PEG}-SIQYHWRYSRFKYYFQLIWVYYSHV (reading uncertain) [PEGylated CD40L M1_82s]
EC50 [7]: 120 nM

{PEG}-DAAGREFFQIAGLFSFRHHWWQA (reading uncertain, also called PEGylated M1_30S) [PEGylated CD40L M1_30s]
EC50 PEGylated peptide, inhibition of CD40L-induced CD86 expression on primary B-cells [6]: > 2000 nM
EC50 [7]: 32 nM

LWRLNEWNYSDAELLSLIEWCIDH (Base peptide) [CD40L M8_721]
Kd [3]: 7 nM
EC50 [4]: 524 nM

B3: Cys_M1_6S-Cys_M1_189S heterodimer (peptide)
peptide 1: CHPFSIKNVFSIWNFFSVY
peptide 2: CLLLFFFSPPFSIFSFSLTTLS
modifications: disulfide I:1-II:1
notes: also called 6-189 dimer
EC50, inhibition of CD40L-induced CD86 expression on primary B-cells [8]: 140 nM
EC50 [9]: 0.000174 nM

{PEG}-LLYVKVISFFSMLVQYNNFQTYK (reading uncertain) [PEGylated CD40L M2_159s]
EC50 [7]: 120 nM

{PEG}-LPFVPYRSHVLKYGWFFPVQWSIFAVLPFQYLHRSR (reading uncertain, also called PEGylated M1-18S) [PEGylated CD40L M1_18s]
EC50 PEGylated peptide, inhibition of CD40L-induced CD86 expression on primary B-cells [6]: 90 nM
EC50 [7]: 3300 nM

B4: CD40L M8_720 (peptide)
peptide: RLPETRKAQAALATKYGIYGFCYYHYWFNGRRILESPVDAMLESGEPDFPFMLCWANENWT
notes: Base peptide
Kd [3]: 4 nM
EC50 [4]: 238 nM
